The target in experiment [1] is T1, recombinant cynomolgus Robo 4 ECD fused to AcTEV protease recognition site, Avi- and 6xHis-tag (cynomolgus).
T1 construct: Biotinylated in the avidity assay
T1 chain: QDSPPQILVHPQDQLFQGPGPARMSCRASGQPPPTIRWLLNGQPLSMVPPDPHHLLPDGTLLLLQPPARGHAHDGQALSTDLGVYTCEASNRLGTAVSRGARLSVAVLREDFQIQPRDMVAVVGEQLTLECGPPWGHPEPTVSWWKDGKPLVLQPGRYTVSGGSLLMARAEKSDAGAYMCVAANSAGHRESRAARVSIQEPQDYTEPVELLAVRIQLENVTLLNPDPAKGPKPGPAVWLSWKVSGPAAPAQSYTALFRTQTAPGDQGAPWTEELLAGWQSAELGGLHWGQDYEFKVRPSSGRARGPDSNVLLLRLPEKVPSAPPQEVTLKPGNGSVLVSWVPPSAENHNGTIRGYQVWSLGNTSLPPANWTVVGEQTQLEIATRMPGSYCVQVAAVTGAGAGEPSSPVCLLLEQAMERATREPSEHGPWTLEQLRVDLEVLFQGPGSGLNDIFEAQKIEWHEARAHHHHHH
The experiment in a line: SPR, BioRad ProteOn XPR36, purified Fab, monovalent affinity; cynomolgus Robo 4; Fab, monovalent affinity.

In experiment [2] the target is T2, murine (mu) Robo 4 ECD-PreS-Avi-His (mouse).
T2 construct: also called recombinant murine Robo 4; murine Robo 4
T2 chain: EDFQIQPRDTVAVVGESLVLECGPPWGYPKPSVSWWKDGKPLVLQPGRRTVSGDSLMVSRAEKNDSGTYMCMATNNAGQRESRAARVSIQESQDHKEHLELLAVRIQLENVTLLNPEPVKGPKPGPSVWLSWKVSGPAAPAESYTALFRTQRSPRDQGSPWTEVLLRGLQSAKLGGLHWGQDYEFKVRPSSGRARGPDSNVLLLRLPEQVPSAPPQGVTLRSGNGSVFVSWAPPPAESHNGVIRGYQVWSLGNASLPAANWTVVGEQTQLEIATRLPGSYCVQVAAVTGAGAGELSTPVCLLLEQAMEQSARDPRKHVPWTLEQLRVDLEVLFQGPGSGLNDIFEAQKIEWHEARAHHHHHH
The experiment in a line: SPR, BioRad ProteOn XPR36, purified Fab.

In experiment [3] the target is T3, biotinylated ectodomain of human Robo 4 with C-terminal AcTEV protease site, Avi-tag and 6xHis-tag (human, biotin on the Avi-tag (in vivo biotinylated via co-expression of BirA)).
T3 construct: also called biotinylated human Robo 4
T3 chain: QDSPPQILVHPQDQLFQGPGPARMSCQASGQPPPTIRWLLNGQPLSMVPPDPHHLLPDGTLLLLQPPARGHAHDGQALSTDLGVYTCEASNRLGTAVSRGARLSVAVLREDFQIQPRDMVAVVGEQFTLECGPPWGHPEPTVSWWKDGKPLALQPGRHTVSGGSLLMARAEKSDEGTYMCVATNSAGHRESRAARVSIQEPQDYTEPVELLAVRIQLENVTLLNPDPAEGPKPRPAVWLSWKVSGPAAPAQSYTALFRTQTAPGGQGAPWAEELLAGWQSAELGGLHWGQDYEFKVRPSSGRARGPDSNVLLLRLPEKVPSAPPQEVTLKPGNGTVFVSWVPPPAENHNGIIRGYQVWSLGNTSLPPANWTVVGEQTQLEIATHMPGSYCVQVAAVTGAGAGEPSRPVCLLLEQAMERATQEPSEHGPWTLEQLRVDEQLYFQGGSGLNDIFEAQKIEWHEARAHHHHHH
The experiment is described as follows: SPR, BioRad ProteOn XPR36, purified Fab, monovalent affinity; human Robo 4; Fab, monovalent affinity. A general note: SPR reads the build-up and loss of mass on a sensor chip optically.

B1: 7G2 Fab (phage display clone, bacterially expressed) (Fab, V domains shown)
VH: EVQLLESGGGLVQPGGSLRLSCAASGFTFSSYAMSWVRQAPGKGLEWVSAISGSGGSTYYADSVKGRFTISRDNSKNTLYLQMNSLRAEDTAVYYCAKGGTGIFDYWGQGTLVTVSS
VL: EIVLTQSPGTLSLSPGERATLSCRASQSVSSSYLAWYQQKPGQAPRLLIYGASSRATGIPDRFSGSGSGTDFTLTISRLEPEDFAVYYCQQGQLPPRTFGQGTKVEIK
notes: also called clone 7G2
One may read the Kd as the free concentration of one partner at which half of the binding sites on the other are occupied at equilibrium, for simple one-to-one binding. Regarding B1, the results for the Kd in experiment [1] and in experiment [3] were 20.5 nM and 14.9 nM, respectively. Moreover, in experiment [2], the binding result was “no binding”.

These data come from patent publication US20180282410A1 (Hoffmann-La Roche, published 2018).
